Measurements as given in PMC9212912 (Structure (London, England : 1993), 2022).
Ends that are not written are not given here.

Columns and labels:
BRD4 ET domain (600–700) [1] = target: T1, BRD4 ET domain (600–700) (human, UniProt O60885 600-700); assay: NMR titration
BRD4 ET domain (600–700) [2] = target: T1, BRD4 ET domain (600–700); assay: MST
[3] = target: BRD4 bromodomain 1 (residues 43–180) (human, UniProt O60885 43-180); assay: NMR titration

Binder | Kd [3] [µM] | further results
KPSFYVYSRVKNLNSSRVPD [SARS-CoV-2 E^53−72 peptide (aa 53–72 of SARS-CoV-2 E)] |  | binding result (BRD4 ET domain (600–700) [1]): binds
{FAM}-SFYVYSRVKNLN [FAM-SARS-CoV-2 E^55–66 peptide] |  | Kd (BRD4 ET domain (600–700) [2]): 50 µM
SRVK(Ac)NLNSS [monoacetylated SARS-CoV-2 E^K63ac peptide (aa 60–68 of SARS-CoV-2 E)] | 660 | 
SLVK(Ac)PS [monoacetylated SARS-CoV-2 E^K53ac peptide (aa 50–55 of SARS-CoV-2 E)] | > 1000 | 
